The source of these data is patent publication JP2024517985A.

First the molecules themselves.
B1: 抗-CD300cモノクローナル抗体 SK15 (antibody, from another filing, V domains shown)
VH: RVQLLESGGGLVQPGGSLRLSCAASGFTFSSYAMHWVRQAPGKGLEWVSAINGSGGSTYYADSVKGRFTISRDNSKNTLYLQTNSLRAEDTAVYYCARGLQGFDYWGQGTLVTVSS
VL: EIVLTQSPGTLSLSPGERATLSCQASQDITNYLNWYQQKPGQAPRLLIYDASSLETGIPDRFSGSGSGTDFTLTISRLEPEDFAVYYCQQSYSTPITFGQGTKVEIK
B2: 抗-CD300cモノクローナル抗体 SK16 (antibody, from another filing, V domains shown)
VH: RVQLLESGGGLVQPGGSLRLSCAASGFTFSSYAMSWVRQAPGKGLEWVSAINGSGGSTLYADSVKGRFTISRDNSKNTLYLQMNSLRAEDTAVYYCARGVSGFDSWGQGTLVTVSS
VL: EIVLTQSPGTLSLSPGERATLSCRISQSISSYLNWYQQKPGQAPRLLIYDASLRATGIPDRFSGSGSGTDFTLTISRLEPEDFAVYYCQQSYKTPITFGQGTKVEIK
B3: 抗-CD300cモノクローナル抗体 CK3 (antibody, from another filing, V domains shown)
VH: RVQLLESGGGLVQPGGSLRLSCAASGFTFSSYAISWVRQAPGKGLEWVSATSGSGRATYYADSVKGRFTISRDNSKNTLYLQMNSLRAEDTAVYYCARDTWWEGYFDLWGQGTLVTVSS
VL: EIVLTQSPGTLSLSPGERATLSCQASHISTHLNWYQQKPGQAPRLLIYGASSRATGIPDRFSGSGSGTDFTLTISRLEPEDFAVYYCQQYNTYPPTFGQGTKVEIK

This assay has as its target T1, CD300c抗原(11832-H08H、Sino Biological) (UniProt Q08708).
T1 sequence (looked up): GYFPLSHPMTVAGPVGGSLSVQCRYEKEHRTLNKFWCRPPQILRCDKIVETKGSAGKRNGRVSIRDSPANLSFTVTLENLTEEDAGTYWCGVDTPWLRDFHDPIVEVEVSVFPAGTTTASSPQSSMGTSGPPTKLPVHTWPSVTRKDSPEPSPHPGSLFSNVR
Description: binding ELISA, CD300c antigen coated at 8 ug/mL, HRP anti-Fc IgG. On the technique in general: In an ELISA, binding on a coated surface is turned into a signal by an enzyme label.
B1: the EC50 (in general, the concentration that produces a half-maximal response) was over 0.2 µg/mL.
B2 returned an EC50 of over 0.2 µg/mL.
Next, B3: over 0.2 µg/mL.
